Molecular target: T1, malaria vaccine candidate protein Pfs48 with PR-1a signal peptide, 6xHis tag and KDEL
T1 chain: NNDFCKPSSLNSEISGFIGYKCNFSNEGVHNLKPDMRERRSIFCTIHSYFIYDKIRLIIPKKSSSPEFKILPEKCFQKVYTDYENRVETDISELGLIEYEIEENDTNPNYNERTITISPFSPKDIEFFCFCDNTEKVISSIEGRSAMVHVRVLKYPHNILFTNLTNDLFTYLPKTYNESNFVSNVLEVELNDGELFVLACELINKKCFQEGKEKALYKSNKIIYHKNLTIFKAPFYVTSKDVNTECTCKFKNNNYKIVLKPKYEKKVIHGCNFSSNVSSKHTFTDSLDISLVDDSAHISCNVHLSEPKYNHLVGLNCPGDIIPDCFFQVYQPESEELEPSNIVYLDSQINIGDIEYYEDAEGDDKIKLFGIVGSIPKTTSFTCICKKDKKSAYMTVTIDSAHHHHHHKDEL

B1: endoglycosidase F from Elizabethkingia meningoseptica (PNGaseF) with PR-1a signal peptide, FLAG tag and KDEL (protein)
chain: APADNTVNIKTFDKVKNAFGDGLSQSAEGTFTFPADVTTVKTIKMFIKNECPNKTCDEWDRYANVYVKNKTTGEWYEIGRFITPYWVGTEKLPRGLEIDVTDFKSLLSGNTELKIYTETCLAKGREYSVDFDIVYGTPDYKYSAVVPVIQYNKSSIDGVPYGKAHTLGLKKNIQLPTNTEKAYLRTTISGWGHAKPYDAGSRGCAEWCFRTHTIAINNANTFQHQLGALGCSANPINNQSPGNWAPDRAGWCPGMAVPTRIDVLNNSLTGSTFSYEYKFQSWTNNGTNGDAFYAISSFVIAKSNTPISAPVVTNDYKDDDDKDEL
In the case of B1, the “electrophoretic mobility of Pfs48 on Western blot (deglycosylation on co-expression in planta)” value is reported as “the electrophoretic mobility of the glycosylated Pfs48 (control, which was expressed w/o PNGaseF) was different (less mobility) compared to the non-glycosylated form of Pfs48 that was co-expressed with PNGaseF”.

— patent US20140056908
